Reference: patent US20070141060A1, “Hmgb1 protein inhibitors for the regulation of smooth muscle cells and endothelial cells profileration” (BIO3 RESEARCH SRL, priority 2004, published 2007)

Experiments:
Type in all cases: cell-based
[1] = tested on: Bovine aorta endothelial cells; experiment: Proliferation of bovine aorta endothelial cells (cell counting); conditions: DMEM + different concentrations of HMGB1, no FCS; cells counted at 24 hours intervals; FIG. 1
Description: (§1) Bovine aorta endothelial cells or bovine smooth muscle at an early passage were cultured in DMEM+10% FCS. Cells were then kept for 16 hours in DMEM in absence of FCS, and plated in 6 cm wells of 6-well plates (about 50 000 cells per well). Cells were then cultured, in triplicate, in the presence of DMEM alone, DMEM+10% FCS, or DMEM+different concentrations of HMGB1. At 24 hours intervals cells were counted under the microscope.

bovine smooth muscle = experiment: Proliferation of bovine smooth muscle cells (cell counting)
Description: as §1

3T3 mouse fibroblasts = experiment: Proliferation of 3T3 mouse fibroblasts in similar conditions; conditions: data not shown

B1: HMGB1: HMGB1 protein, released after mechanical injury of cells; induces smooth muscle cell and endothelial cell proliferation (protein, UniProt P09429 1-215, looked up)
High mobility group protein B1: MGKGDPKKPRGKMSSYAFFVQTCREEHKKKHPDASVNFSEFSKKCSERWKTMSAKEKGKFEDMAKADKARYEREMKTYIPPKGETKKKFKDPNAPKRPPSAFFLFCSEYRPKIKGEHPGLSIGDVAKKLGEMWNNTAADDKQPYEKKAAKLKEKYEKDIAAYRAKGKPDAAKKGVVKAEKSKKKKEEEEDEEDEEDEEEEEDEEDEDEEEDDDDE
- cell division / proliferation of BAEC [1]: keep dividing
- cell division / proliferation of BSMC (bovine smooth muscle; DMEM + different concentrations of HMGB1, no FCS, single addition, cells counted at 24 hours intervals, FIG. 1): a couple of rounds of division in BSMC, followed by quiescence
- cell proliferation of BSMC on repeated addition (bovine smooth muscle; repeated addition of HMGB1 every 24 hours, data not shown): keep proliferating
- proliferation of 3T3 mouse fibroblasts (3T3 mouse fibroblasts): does not cause the proliferation
